Source: patent US20260285971 (published 2026)
Numbering of substitutions follows the chain as printed.

T1: human GPRC5D (human)
T1 chain: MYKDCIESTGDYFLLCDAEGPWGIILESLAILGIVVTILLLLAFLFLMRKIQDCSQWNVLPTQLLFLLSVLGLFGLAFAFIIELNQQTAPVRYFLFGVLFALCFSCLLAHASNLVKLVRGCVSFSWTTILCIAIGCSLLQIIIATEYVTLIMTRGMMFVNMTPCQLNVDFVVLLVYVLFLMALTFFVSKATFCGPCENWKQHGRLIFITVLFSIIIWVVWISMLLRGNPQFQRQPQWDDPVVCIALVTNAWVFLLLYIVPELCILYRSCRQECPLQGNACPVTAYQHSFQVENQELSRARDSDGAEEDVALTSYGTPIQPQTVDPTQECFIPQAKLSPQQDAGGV

B1: 5F11-hIgG1 (antibody, V domains shown)
VH: EVQLVESGGGLVQPGRSLKLSCAASGFSFSNYGMAWVRQAATKGLEWVASISTGGGNTYYRDSVKGRFIVSRDNAKNTQYLQMDSLRSEDTATYYCTRHDRGGLYWGQGVMVTVSS
VL: DIVMTQAPLSVSVTPGESASISCRSSKSLLHSNGITYVYWYFQKPGKSPQVLIYRMSNLASGVPDRFSGSGSETDFTLKISRVEAEDVGIYHCGQLLENPYTFGAGTELELK
B2: JNJ7564-hIgG1 (antibody, V domains shown)
VH: QVQLVQSGAEVKKPGASVKVSCKASGYSFTGYTMNWVRQAPGQGLEWMGLINPYNSDTNYAQKLQGRVTMTTDTSTSTAYMELRSLRSDDTAVYYCARVALRVALDYWGQGTLVTVSS
VL: DIQMTQSPSSLSASVGDRVTITCKASQNVATHVGWYQQKPGKAPKRLIYSASYRYSGVPSRFSGSGSGTEFTLTISNLQPEDFATYYCQQYNRYPYTFGQGTKLEIK
B3: HAB01-H7 (antibody, V domains shown)
VH: EVQLVESGGGLVQPGGSLRLSCAASGYAGGIAYMAWFRQAPGKGREGVALIATSGTTSYADSVKGRFTISRDGAKNSVYLQMNSLRAEDTAVYYCAAKSRLGWPGLETSQFKYWGQGTMVTVSS
B4: HAB06-H5 (designed binder)
chain: EVQLVESGGGLVQPGGSLRLSCAASGFTFSSAWMYWFRQAPGKGLEWVSHIDPRGGSTYYADSVKGRFTISRDNAKNTLYLQMNSLRAEDTAVYYCAKDLRGLGRGQGTQVTVSS
B5: Lab06-huFc (designed binder)
chain: B4 chain with E1Q, A23T, N84R, R87K, A88S
B6: HAB06-H1 (designed binder)
chain: B4 chain with A75S, Q110M
B7: Lab05-huFc (antibody, V domains shown)
VH: QVQLVESGGGLVQPGGSLRLSCAASGILVSAYVMAWYRQPPGKQRDLVARLSTDGRTTYADSVKGRFTISKDNAKSTLYLQMNTLKSEDTAVYYCYAERSRGHWGQGTQVTVSS
B8: HAB05-H3 (antibody, V domains shown)
VH: B7 VH with Q1E, P40A, D46V, A49S, T84S, K86R, S87A, Q109M
B9: HAB05-H2 (antibody, V domains shown)
VH: B7 VH with Q1E, P40A, D46V, A49S, S76N, T84S, K86R, S87A, Q109M
B10: MCARH109-scFv-huFc (antibody, V domains shown)
VH: QVQLVESGGGLVHPGGSLRLSCAASGFTFRSHSMNWVRQAPGKGLEWVSSISSDSTYTYYADSVKGRFTISRDNAKNSLYLQMNSLRAEDTAVYYCARSGGQWKYYDYWGQGTLVTVSS
VL: SSELTQDPAVSVALGQTVRITCQGDSLRSYYASWYQQKPGQAPVLVIYGKNNRPSGIPDRFSGSSSGNTASLTITGAQAEDEADYYCNSRDSSGNPPVVFGGGTKLTVL

Target: T1, human GPRC5D
Assay: ELISA

| Binder | EC50 [nM] |
| --- | --- |
| B1 | 0.0371 |
| B2 | 0.0211 |

Target: T1, human GPRC5D
Assay: ELISA
Remark: another data set of the same source

| Binder | EC50 [nM] |
| --- | --- |
| B1 | 0.0498 |
| B3 | 0.0264 |
| B2 | 0.0379 |

Target: T1, human GPRC5D
Assay: ELISA
Remark: another data set of the same source

| Binder | EC50 [nM] |
| --- | --- |
| B1 | 0.0295 |
| B2 | 0.028 |

Target: T1, human GPRC5D
Assay: ELISA
Remark: another data set of the same source

| Binder | EC50 [nM] |
| --- | --- |
| B1 | 0.0659 |
| B2 | 0.0559 |

Target: T1, human GPRC5D
Assay: FACS molp-8

| Binder | EC50 [nM] |
| --- | --- |
| B4 | 0.178 |
| B5 | 0.132 |
| B6 | 0.14 |
| B7 | 0.0616 |
| B8 | 0.0433 |
| B9 | 0.0839 |
| B10 | 3.23 |

Target: T1, human GPRC5D
Assay: FACS molp-8
Remark: another data set of the same source

| Binder | EC50 [µM] |
| --- | --- |
| B1 | 0.00292 |
| B3 | 0.00076 |
| B2 | 0.0269 |

Target: T1, human GPRC5D
Assay: FACS molp-8
Remark: another data set of the same source

| Binder | EC50 [µM] |
| --- | --- |
| B1 | 0.00564 |
| B2 | 0.0413 |

Target: T1, human GPRC5D
Assay: FACS molp-8
Remark: another data set of the same source

| Binder | EC50 [µM] |
| --- | --- |
| B1 | 0.0126 |
| B2 | 0.0459 |

Target: T1, human GPRC5D
Assay: FACS molp-8
Remark: another data set of the same source

| Binder | EC50 [µM] |
| --- | --- |
| B1 | 0.00368 |
| B2 | 0.0344 |

Target: T1, human GPRC5D
Assay: FACS NCI-H929

| Binder | EC50 [µM] |
| --- | --- |
| B1 | 0.00196 |
| B2 | 0.00697 |

Target: T1, human GPRC5D
Assay: FACS NCI-H929
Remark: another data set of the same source

| Binder | EC50 [µM] |
| --- | --- |
| B1 | 0.00269 |
| B2 | 0.00988 |

Target: T1, human GPRC5D
Assay: FACS NCI-H929
Remark: another data set of the same source

| Binder | EC50 [nM] |
| --- | --- |
| B4 | 0.38 |
| B5 | 0.273 |
| B6 | 0.166 |
| B7 | 0.111 |
| B8 | 0.0861 |
| B9 | 0.202 |
| B10 | 2.45 |

Target: T1, human GPRC5D
Assay: FACS NCI-H929
Remark: another data set of the same source

| Binder | EC50 [µM] |
| --- | --- |
| B1 | 0.0029 |
| B2 | 0.0256 |

Target: T1, human GPRC5D
Assay: FACS NCI-H929
Remark: another data set of the same source

| Binder | EC50 [µM] |
| --- | --- |
| B1 | 0.00305 |
| B3 | 0.000916 |
| B2 | 0.0179 |

Target: T1, human GPRC5D
Assay: FACS RPMI-8226

| Binder | EC50 [µM] |
| --- | --- |
| B4 | 0.000387 |
| B5 | 0.000261 |
| B6 | 0.000406 |
| B7 | 0.0316 |
| B8 | 0.00012 |
| B9 | 0.000141 |

Target: T1, human GPRC5D
Assay: FACS RPMI-8226
Remark: another data set of the same source

| Binder | EC50 [µM] |
| --- | --- |
| B1 | 0.0187 |
| B2 | ~1360 |

Target: T1, human GPRC5D
Assay: FACS RPMI-8226
Remark: another data set of the same source

| Binder | EC50 [µM] |
| --- | --- |
| B1 | 0.0265 |
| B3 | 0.0037 |
| B2 | ~5.46 |

Target: T1, human GPRC5D
Assay: FACS RPMI-8226
Remark: another data set of the same source

| Binder | EC50 [µM] |
| --- | --- |
| B1 | 0.0121 |
| B2 | ~635 |

Target: T1, human GPRC5D
Assay: FACS RPMI-8226
Remark: another data set of the same source

| Binder | EC50 [µM] |
| --- | --- |
| B1 | 0.00707 |
| B2 | 0.0734 |

Target: T1, human GPRC5D
Assay: FACS CHOK1-human GPRC5D

| Binder | EC50 [µM] |
| --- | --- |
| B4 | 0.000241 |
| B5 | 0.00022 |
| B6 | 0.000324 |
| B7 | 0.000279 |
| B8 | 0.000249 |
| B9 | 0.000514 |
| B10 | 0.000286 |
